# Assay results: article PMC2679042 (2009)
# T1: proMMP-2 (Homo sapiens, UniProt P08253)
# T1 chain: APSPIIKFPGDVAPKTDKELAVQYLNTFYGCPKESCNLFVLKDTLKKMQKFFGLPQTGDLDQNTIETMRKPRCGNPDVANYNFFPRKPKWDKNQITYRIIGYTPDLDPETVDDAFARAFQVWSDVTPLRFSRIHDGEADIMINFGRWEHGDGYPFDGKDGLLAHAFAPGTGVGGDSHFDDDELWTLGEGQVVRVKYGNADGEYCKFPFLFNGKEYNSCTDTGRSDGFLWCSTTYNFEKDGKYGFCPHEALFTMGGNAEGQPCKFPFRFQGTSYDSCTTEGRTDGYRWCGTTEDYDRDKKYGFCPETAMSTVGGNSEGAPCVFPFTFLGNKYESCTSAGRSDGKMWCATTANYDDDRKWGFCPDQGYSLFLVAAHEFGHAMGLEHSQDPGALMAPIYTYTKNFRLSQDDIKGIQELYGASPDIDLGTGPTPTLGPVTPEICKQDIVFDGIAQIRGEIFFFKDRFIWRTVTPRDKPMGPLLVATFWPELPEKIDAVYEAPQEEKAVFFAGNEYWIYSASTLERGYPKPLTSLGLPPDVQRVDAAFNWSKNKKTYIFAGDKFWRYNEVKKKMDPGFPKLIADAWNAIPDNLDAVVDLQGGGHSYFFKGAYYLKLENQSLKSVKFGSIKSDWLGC
# How the values were obtained:
# proMMP-2 (Homo sapiens) = proMMP-2 (Homo sapiens) (UniProt P08253); conditions: cited from earlier work
# proMMP-2 = target: T1, proMMP-2; experiment: tryptophan fluorescence quenching
Kd (proMMP-2),Molecule,Kd (proMMP-2 (Homo sapiens))
,bone sialoprotein (from UniProt P21815),2.9 nM
270 nM,bone sialoprotein (protein) FSMKNLHRRVKIEDSEENGVFKYRPRYYLYKHAYFYPHLKRFPVQGSSDSSEENGDDSSEEEEEEEETSNEGENNEESNEDEDSEAENTTLSATTLGYGEDATPGTGYTGLAAIQLPKKAGDITNKATKEKESDEEEEEEEEGNENEESEAEVDENEQGINGTSTNSTEAENGNGSSGGDNGEEGEEESVTGANAEDTTETGRQGKGTSKTTTSPNGGFEPTTPPQVYRTTSPPFGKTTTVEYEGEYEYTGANEYDNGYEIYESENGEPRGDNYRAYEDEYSYFKGQGYDGYDGQNYYHHQ,
